Holding throughout (experiment): G assays, titrations or binding assays of peptides
In one experiment the target is T1, INADL d3 (Homo sapiens, UniProt Q8NI35).
T1 construct: made in house; host or cells: E. coli (DH5α, BL21 or JM109)
T1 sequence (Q8NI35 with tags, fused parts or gaps): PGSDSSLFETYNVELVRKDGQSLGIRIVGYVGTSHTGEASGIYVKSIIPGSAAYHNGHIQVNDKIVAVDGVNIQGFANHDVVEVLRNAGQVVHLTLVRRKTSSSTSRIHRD
Particulars: peptide demonstrated to bind INADL d3 in G assays.

The next experiment addresses T2, PAR3 d3 (Homo sapiens, UniProt Q8TEW0, R682S).
T2 construct: made in house; host or cells: E. coli (DH5α, BL21 or JM109)
Particulars: peptide demonstrated to bind PAR3 d3 in G assays.

The target of another experiment is T3, Syntrophin 1 alpha d1 (Homo sapiens, UniProt Q13424).
T3 construct: made in house; host or cells: E. coli (DH5α, BL21 or JM109)
T3 sequence (Q13424 84-177): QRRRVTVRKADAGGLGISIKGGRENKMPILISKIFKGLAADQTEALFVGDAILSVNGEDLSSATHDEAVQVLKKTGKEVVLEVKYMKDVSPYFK
Particulars: peptide demonstrated to bind syntrophin 1 alpha d1 in G assays. The procedure: In one aspect, the invention provides an assay in which a GST/PDZ fusion protein is immobilized on a surface (G assay). The binding of labeled PL peptide (e.g., as listed in TABLE 2 and TABLE 4) to this surface is then measured. In a preferred embodiment, the assay is carried out as follows:
(1) A PDZ-domain polypeptide is bound to a surface, e.g. a protein binding surface. In a preferred embodiment, a GST/PDZ fusion protein containing one or more PDZ domains is bound to a polystyrene 96-well plate. […] In one embodiment, the GST/PDZ fusion protein is bound via an anti-GST antibody that is coated onto the 96-well plate. Adequate binding to the plate can be achieved when: • a. 100 μl per well of 5 μg/ml goat anti-GST polyclonal antibody (Pierce) in PBS is added to a polystyrene 96-well plate (e.g., Nunc Polysorp) at 4° C. for 12 hours. • b. The plate is blocked by addition of 200 μl per well of PBS/BSA for 2 hours at 4° C. • c. The plate is washed 3 times with PBS. • d. 50 μl per well of 5 μg/ml GST/PDZ fusion protein) or, as a negative control, GST polypeptide alone (i.e. not a fusion protein) in PBS/BSA is added to the plate for 2 hours at 4° C. • e. the plate is again washed 3 times with PBS.
(2) Biotinylated PL peptides are allowed to react with the surface by addition of 50 μl per well of 20 μM solution of the biotinylated peptide in PBS/BSA for 10 minutes at 4° C., followed by an additional 20 minute incubation at 25° C. The plate is washed 3 times with ice cold PBS.
(3) The binding of the biotinylated peptide to the GST/PDZ fusion protein surface can be detected using a variety of methods and detectors known to one of skill in the art. In one embodiment, 100 μl per well of 0.5 μg/ml streptavidin-horseradish peroxidase (HRP) conjugate dissolved in BSA/PBS is added and allowed to react for 20 minutes at 4° C. The plate is then washed 5 times with 50 mM Tris pH 8.0 containing 0.2% Tween 20, and developed by addition of 100 μl per well of HRP-substrate solution (TMB, Dako) for 20 minutes at room temperature (RT). The reaction of the HRP and its substrate is terminated by addition of 100 μl per well of 1 M sulfuric acid, and the optical density (O.D.) of each well of the plate is read at […].
(4) Specific binding of a PL peptide and a PDZ domain polypeptide is determined by comparing the signal from the well(s) in which the PL peptide and PDZ domain polypeptide are combined, with the background signal(s). The background signal is the signal found in the negative control(s). Typically a specific or selective reaction will be at least twice background signal, more typically more than 5 times background, and most typically 10 or more times the background signal. In addition, a statistically significant reaction will involve multiple measurements of the reaction with the signal and the background differing by at least two standard errors, more typically four standard errors, and most typically six or more standard errors. Correspondingly, a statistical test (e.g. a T-test) comparing repeated measurements of the signal with repeated measurements of the background will result in a p-value <0.05, more typically a p-value <0.01, and most typically a p-value <0.001 or less. As noted, in an embodiment of the G assay, the signal from binding of a given PL peptide to immobilized (surface bound) GST polypeptide alone is one suitable negative control (sometimes referred to as B1). Because all measurement are done in multiples (i.e. at least duplicate) the arithmetic mean (or, equivalently, average.) of several measurements is used in determining the binding, and the standard error of the mean is used in determining the probable error in the measurement of the binding. The standard error of the mean of N measurements equals the square root of the following: the sum of the squares of the difference between each measurement and the mean, divided by the product of (N) and (N−1). […]

The next experiment deals with T4, RIM2 d1 (Homo sapiens, UniProt Q9UQ26).
T4 construct: made in house; host or cells: E. coli (DH5α, BL21 or JM109)
T4 sequence (Q9UQ26 632-757): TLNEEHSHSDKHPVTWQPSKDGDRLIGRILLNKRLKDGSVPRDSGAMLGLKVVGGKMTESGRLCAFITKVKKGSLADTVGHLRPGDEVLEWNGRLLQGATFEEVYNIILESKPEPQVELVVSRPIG
Particulars: peptide demonstrated to bind RIM2 d1 in G assays.

Another experiment addresses T5, ZO-1 d2 (Homo sapiens, UniProt Q07157, DEL264-264).
T5 construct: made in house; host or cells: E. coli (DH5α, BL21 or JM109)
T5 sequence (Q07157 with tags, fused parts or gaps DEL264-264): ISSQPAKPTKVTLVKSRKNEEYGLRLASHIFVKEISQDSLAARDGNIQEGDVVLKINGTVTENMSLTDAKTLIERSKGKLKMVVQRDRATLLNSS
Conditions: peptide demonstrated to bind ZO-1 d2 in G assays.

No end group written: not given here. *: point of attachment. Biotin = O=C1N[C@H]2[C@H](CS[C@H]2CCCCC(=O)*)N1

T2 sequence (Q8TEW0 with tags, fused parts or gaps R682S): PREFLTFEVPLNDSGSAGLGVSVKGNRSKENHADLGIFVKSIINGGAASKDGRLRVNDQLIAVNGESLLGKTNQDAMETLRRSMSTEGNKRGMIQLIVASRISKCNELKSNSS
Method for INADL d3: (§1) In one aspect, the invention provides an assay in which a GST/PDZ fusion protein is immobilized on a surface (G assay). […] In a preferred embodiment, the assay is carried out as follows:
(§2) (3) The binding of the biotinylated peptide to the GST/PDZ fusion protein surface can be detected using a variety of methods and detectors known to one of skill in the art. In one embodiment, 100 μl per well of 0.5 μg/ml streptavidin-horseradish peroxidase (HRP) conjugate dissolved in BSA/PBS is added and allowed to react for 20 minutes at 4° C. The plate is then washed 5 times with 50 mM Tris pH 8.0 containing 0.2% Tween 20, and developed by addition of 100 μl per well of HRP-substrate solution (TMB, Dako) for 20 minutes at room temperature (RT). The reaction of the HRP and its substrate is terminated by addition of 100 μl per well of 1 M sulfuric acid, and the optical density (O.D.) of each well of the plate is read at 450 um.
(§3) (4) Specific binding of a PL peptide and a PDZ domain polypeptide is determined by comparing the signal from the well(s) in which the PL peptide and PDZ domain polypeptide are combined, with the background signal(s). […] Typically a specific or selective reaction will be at least twice background signal, more typically more than 5 times background, and most typically 10 or more times the background signal. […] Correspondingly, a statistical test (e.g. a T-test) comparing repeated measurements of the signal with repeated measurements of the background will result in a p-value <0.05, more typically a p-value <0.01, and most typically a p-value <0.001 or less. As noted, in an embodiment of the G assay, the signal from binding of a given PL peptide to immobilized (surface bound) GST polypeptide alone is one suitable negative control (sometimes referred to as B1). Because all measurement are done in multiples (i.e. at least duplicate) the arithmetic mean (or, equivalently, average.) of several measurements is used in determining the binding, and the standard error of the mean is used in determining the probable error in the measurement of the binding. The standard error of the mean of N measurements equals the square root of the following: the sum of the squares of the difference between each measurement and the mean, divided by the product of (N) and (N−1). Thus, in one embodiment, specific binding of the PDZ protein to the platebound peptide is determined by comparing the mean signal (“mean S”) and standard error of the signal (“SE”) for a particular PL-PDZ combination with the mean B1.
Method for PAR3 d3: as §1, §2, §3
Method for ZO-1 d2: as §1, §2, §3

Turning to “RELVDRGEVRQFTLRHWLKV (Biotin-RELVDRGEVRQFTLRHWLKV)”, the POZ domain bound result in the experiment with INADL d3 is “INADL D3”; with PAR3 d3 it was “PAR3 D3”; with Syntrophin 1 alpha d1, “Syntrophin 1 alpha D1”; in the experiment with RIM2 d1 it was “RIM2 D1”; in the experiment with ZO-1 d2 it was “ZO-1 D2”.

Take “QDFRRAFRRILARPWTQTAW (Biotin-QDFRRAFRRILARPWTQTAW)”: the POZ domain bound entry with INADL d3 is listed as “INADL D3”; with PAR3 d3 it was “PAR3 D3”; with Syntrophin 1 alpha d1 it was “Syntrophin 1 alpha D1”; with RIM2 d1, “RIM2 D1”; with ZO-1 d2 it was “ZO-1 D2”.

For “KKKKQPGNSTKESESTNSVRLML (Biotin-KKKKQPGNSTKESESTNSVRLML)”, the POZ domain bound result with INADL d3 is “INADL D3”; with PAR3 d3 it was “PAR3 D3”; with Syntrophin 1 alpha d1, “Syntrophin 1 alpha D1”; in the experiment with RIM2 d1, “RIM2 D1”; in the experiment with ZO-1 d2, “ZO-1 D2”.

As to QISPGGLEPPSEKHFRETEV, in the experiment with Syntrophin 1 alpha d1, the POZ domain bound result was “Syntrophin 1 alpha D1”.

“VPGALDYAAFSSALYGESDL (Biotin-VPGALDYAAFSSALYGESDL)”: in the experiment with Syntrophin 1 alpha d1, the POZ domain bound result was “Syntrophin 1 alpha D1”.

In the case of “FNGSSNGHVYEKLSSIESDV (Biotin-FNGSSNGHVYEKLSSIESDV)”, the POZ domain bound entry with Syntrophin 1 alpha d1 is recorded as “Syntrophin 1 alpha D1”.

Consider “PYSELNYETSHYPASPDSWV (Biotin-PYSELNYETSHYPASPDSWV)”, for which the POZ domain bound result with Syntrophin 1 alpha d1 was “Syntrophin 1 alpha D1”.

In the case of YGRKKRRQRRREYLGLDVPV, the POZ domain bound result at INADL d3 is “INADL D3”; at PAR3 d3, “PAR3 D3”; at RIM2 d1, “RIM2 D1”; at ZO-1 d2 it was “ZO-1 D2”.

As for “TQGFPGPATWRRISSLESEV (Biotin-TQGFPGPATWRRISSLESEV)”, the results for the POZ domain bound entry with INADL d3 and in the experiment with Syntrophin 1 alpha d1 were “INADL D3” and “Syntrophin 1 alpha D1”, respectively.

As to AAGGRSARGGRLQGRRETAL, the POZ domain bound entry on Syntrophin 1 alpha d1 is recorded as “Syntrophin 1 alpha D1”.

Take “SSKSKSSEESQTFFGLYKL (Biotin-SSKSKSSEESQTFFGLYKL)”: the POZ domain bound result is “INADL D3” with INADL d3; “PAR3 D3” with PAR3 d3; “Syntrophin 1 alpha D1” with Syntrophin 1 alpha d1; “RIM2 D1” with RIM2 d1; “ZO-1 D2” with ZO-1 d2.

As for YGRKKRRQRRRAVAATSANL, the POZ domain bound entry in the experiment with INADL d3 is “INADL D3”; with PAR3 d3 it was “PAR3 D3”; with RIM2 d1, “RIM2 D1”; with ZO-1 d2, “ZO-1 D2”.

On to YGRKKRRQRRRNDNIALLVQ, for which the POZ domain bound entry at PAR3 d3 is listed as “PAR3 D3”; at Syntrophin 1 alpha d1, “Syntrophin 1 alpha D1”; on RIM2 d1, “RIM2 D1”; at ZO-1 d2, “ZO-1 D2”.

For “ILNSIQVMRAQMNQIQSVEV (Biotin-ILNSIQVMRAQMNQIQSVEV)”, the POZ domain bound result with INADL d3 is on record as “INADL D3”; with PAR3 d3, “PAR3 D3”; with Syntrophin 1 alpha d1, “Syntrophin 1 alpha D1”; with ZO-1 d2, “ZO-1 D2”.

Regarding “PIPAGGCTFSGIFPTLTSPL (Biotin-PIPAGGCTFSGIFPTLTSPL)”, the POZ domain bound result in the experiment with INADL d3 is reported as “INADL D3”; with PAR3 d3, “PAR3 D3”; with Syntrophin 1 alpha d1, “Syntrophin 1 alpha D1”.

“GRWTGRAMSAWKPTRRETEV (Biotin-GRWTGRAMSAWKPTRRETEV)”: the POZ domain bound result with INADL d3 is listed as “INADL D3”; with Syntrophin 1 alpha d1, “Syntrophin 1 alpha D1”.

In the case of “FHSKTAGANTTDKELEVLSL (Biotin-FHSKTAGANTTDKELEVLSL)”, the POZ domain bound entry is listed as “INADL D3” in the experiment with INADL d3, “PAR3 D3” with PAR3 d3, “RIM2 D1” with RIM2 d1 and “ZO-1 D2” with ZO-1 d2.

Regarding “DFRPSFKHILFRRARRGFRQ (Biotin-DFRPSFKHILFRRARRGFRQ)”, the POZ domain bound entry is “INADL D3” in the experiment with INADL d3; “PAR3 D3” with PAR3 d3; “Syntrophin 1 alpha D1” with Syntrophin 1 alpha d1; “RIM2 D1” with RIM2 d1; “ZO-1 D2” with ZO-1 d2.

Turning to “DTLLLTENEGDKTEEQVSYV (Biotin-DTLLLTENEGDKTEEQVSYV)”, the POZ domain bound result in the experiment with PAR3 d3 is “PAR3 D3”; with Syntrophin 1 alpha d1 it was “Syntrophin 1 alpha D1”.

“VHKVRNKFKAKCSLCRLYII (Biotin-VHKVRNKFKAKCSLCRLYII; cysteine pairing not given here)”: the POZ domain bound result with INADL d3 is listed as “INADL D3”; with PAR3 d3, “PAR3 D3”; with Syntrophin 1 alpha d1, “Syntrophin 1 alpha D1”; with RIM2 d1, “RIM2 D1”; in the experiment with ZO-1 d2, “ZO-1 D2”.

As for “HSCCNRARQERLQRRRETQV (Biotin-HSCCNRARQERLQRRRETQV; cysteine pairing not given here)”, the POZ domain bound result with INADL d3 is recorded as “INADL D3”; with PAR3 d3 it was “PAR3 D3”; with Syntrophin 1 alpha d1, “Syntrophin 1 alpha D1”; with ZO-1 d2 it was “ZO-1 D2”.

In the case of “TGSALQAWRHTSRQATESTV (Biotin-TGSALQAWRHTSRQATESTV)”, in the experiment with Syntrophin 1 alpha d1, the POZ domain bound result is “Syntrophin 1 alpha D1”.

Regarding “YGRKKRRQRRRKLSSIESDV (Biotin-YGRKKRRQRRRKLSSIESDV)”, the POZ domain bound entry is recorded as “PAR3 D3” in the experiment with PAR3 d3, “Syntrophin 1 alpha D1” in the experiment with Syntrophin 1 alpha d1 and “ZO-1 D2” with ZO-1 d2.

Regarding “VHDAESSOEDGYDWGPATDL: peptide, SEQ ID NO:330 (Biotin-VHDAESSDEDGYDWGPATDL)”, the POZ domain bound entry with Syntrophin 1 alpha d1 is on record as “Syntrophin 1 alpha D1”.

On to “TFKGTPTAENPEYLGLDVPV (Biotin-TFKGTPTAENPEYLGLDVPV)”, for which the POZ domain bound result in the experiment with Syntrophin 1 alpha d1 is “Syntrophin 1 alpha D1”.

For AVGGRPARGGRLQGRRQTQV, the POZ domain bound entry at Syntrophin 1 alpha d1 is reported as “Syntrophin 1 alpha D1”.

In the case of “VDPNSPAAKKKYVSYNNLVI (Biotin-VDPNSPAAKKKYVSYNNLVI)”, the POZ domain bound result with INADL d3 is “INADL D3”; with PAR3 d3 it was “PAR3 D3”; with RIM2 d1, “RIM2 D1”; with ZO-1 d2 it was “ZO-1 D2”.

Turning to “KHSRKSSSYSSSSTTVKTSY (Biotin-KHSRKSSSYSSSSTTVKTSY)”, the POZ domain bound result in the experiment with INADL d3 was “INADL D3”; with PAR3 d3, “PAR3 D3”; with RIM2 d1 it was “RIM2 D1”; with ZO-1 d2, “ZO-1 D2”.

(Values after patent publication US7858322B2, “Method of determining inhibition of binding to TRPM7 protein” (NoNo, Inc., priority 2003, dated 2010).)
